Where a chain is given by its changes, count along the chain named.
B1: caN-HCA-kLC (antibody)
heavy: EVQLVESGGDLVNPGGTLTLSCVVSGFSLTNNNVNWVRQALGRGLEWVGGVWAGGATDYNSALKSRLTITRDTSKSTVFLKMHSLQSEDTATYYCARDGGYSSSTLYAMDAWGQGTLVTVSSASTTAPSVFPLAPSCGSTSGSTVALACLVSGYFPEPVTVSWNSGSLTSGVHTFPSVLQSSGLHSLSSMVTVPSSRWPSETFTCNVVHPASNTKVDKPVFNECRCTDTPPCPVPEPLGGPSVLIFPPKPKDILRITRTPEVTCVVLDLGREDPEVQISWFVDGKEVHTAKTQSREQQFNGTYRVVSVLPIEHQDWLTGKEFKCRVNHIDLPSPIERTISKARGRAHKPSVYVLPPSPKELSSSDTVSITCLIKDFYPPDIDVEWQSNGQQEPERKHRMTPPQLDEDGSYFLYSKLSVDKSRWQQGDPFTCAVMHETLQNHYTDLSLSHSPGK
light: DIQMTQSPASLSLSQEEKVTITCRASEDIYNALAWYQQKPGQAPKLLIYNTDTLHTGVPSRFSGSGSGTEYSLTINSLESEDVAVYFCQHYFHYPRTFGAGTKVELKRNDAQPAVYLFQPSPDQLHTGSASVVCLLNSFYPKDINVKWKVDGVIQDTGIQESVTEQDKDSTYSLSSTLTMSSTEYLSHELYSCEITHKSLPSTLIKSFQRSECQRVD
notes: Caninised aD11 VH joined to canine HCA (caIgG-A) constant domain; caninised aD11 VL joined to canine kappa constant domain; also called caninised anti-NGF antibody, HCA isotype; anti-canine NGF antibody (HCA isotype)
B2: caN-HCD-kLC (antibody)
heavy: EVQLVESGGDLVNPGGTLTLSCVVSGFSLTNNNVNWVRQALGRGLEWVGGVWAGGATDYNSALKSRLTITRDTSKSTVFLKMHSLQSEDTATYYCARDGGYSSSTLYAMDAWGQGTLVTVSSASTTAPSVFPLAPSCGSTSGSTVALACLVSGYFPEPVTVSWNSGSLTSGVHTFPSVLQSSGLYSLSSTVTVPSSRWPSETFTCNVVHPASNTKVDKPVPKESTCKCISPCPVPESLGGPSVFIFPPKPKDILRITRTPEITCVVLDLGREDPEVQISWFVDGKEVHTAKTQPREQQFNSTYRVVSVLPIEHQDWLTGKEFKCRVNHIGLPSPIERTISKARGQAHQPSVYVLPPSPKELSSSDTVTLTCLIKDFYPPEIDVEWQSNGQPEPESKYHTTAPQLDEDGSYFLYSKLSVDKSRWQQGDTFTCAVMHEALQNHYTDLSLSHSPGK
light: B1 light
notes: Caninised aD11 VH joined to canine HCD (caIgG-D) constant domain; canine kappa light chain; CHO supernatant; also called caninised anti-NGF antibody, HCD isotype
B3: caN-HCB-kLC (antibody)
heavy: EVQLVESGGDLVNPGGTLTLSCVVSGFSLTNNNVNWVRQALGRGLEWVGGVWAGGATDYNSALKSRLTITRDTSKSTVFLKMHSLQSEDTATYYCARDGGYSSSTLYAMDAWGQGTLVTVSSASTTAPSVFPLAPSCGSTSGSTVALACLVSGYFPEPVTVSWNSGSLTSGVHTFPSVLQSSGLYSLSSMVTVPSSRWPSETFTCNVAHPASKTKVDKPVPKRENGRVPRPPDCPKCPAPEMLGGPSVFIFPPKPKDTLLIARTPEVTCVVVDLDPEDPEVQISWFVDGKQMQTAKTQPREEQFNGTYRVVSVLPIGHQDWLKGKQFTCKVNNKALPSPIERTISKARGQAHQPSVYVLPPSREELSKNTVSLTCLIKDFYPPDIDVEWQSNGQQEPESKYRTTPPQLDEDGSYFLYSKLSVDKSRWQRGDTFICAVMHEALHNHYTQESLSHSPGK
light: B1 light
notes: Caninised aD11 VH joined to canine HCB (caIgG-B) constant domain; canine kappa light chain; CHO supernatant; also called caninised anti-NGF antibody, HCB isotype
B4: caN-HCC-kLC (antibody)
heavy: EVQLVESGGDLVNPGGTLTLSCVVSGFSLTNNNVNWVRQALGRGLEWVGGVWAGGATDYNSALKSRLTITRDTSKSTVFLKMHSLQSEDTATYYCARDGGYSSSTLYAMDAWGQGTLVTVSSASTTAPSVFPLAPSCGSQSGSTVALACLVSGYIPEPVTVSWNSVSLTSGVHTFPSVLQSSGLYSLSSMVTVPSSRWPSETFTCNVAHPATNTKVDKPVAKECECKCNCNNCPCPGCGLLGGPSVFIFPPKPKDILVTARTPTVTCVVVDLDPENPEVQISWFVDSKQVQTANTQPREEQSNGTYRVVSVLPIGHQDWLSGKQFKCKVNNKALPSPIEEIISKTPGQAHQPNVYVLPPSRDEMSKNTVTLTCLVKDFFPPEIDVEWQSNGQQEPESKYRMTPPQLDEDGSYFLYSKLSVDKSRWQRGDTFICAVMHEALHNHYTQISLSHSPGK
light: B1 light
notes: Caninised aD11 VH joined to canine HCC (caIgG-C) constant domain; canine kappa light chain; CHO supernatant; also called caninised anti-NGF antibody, HCC isotype
B5: anti-NGF MAb with aglycosyl HCC heavy chain (HCC*) (antibody)
heavy: B4 heavy with N303A
light: B1 light
B6: anti-NGF MAb with aglycosyl HCB heavy chain (HCB*) (antibody)
heavy: B3 heavy with N305A
light: B1 light
notes: also called aglycosylated HCB*; aglycosyl HCB* isotype anti-NGF antibody

How the values were obtained:
[1] = molecular target: NGF (TF-1 cell proliferation assay); assay: cell-based or functional assay
complement C1q [2] = molecular target: T1, complement C1q (human, UniProt P02745 23-245; P02746 28-253; P02747 29-245); assay: C1q ELISA, antibody captured on mouse NGF coated plates
T1 construct: Supplied as human serum diluted 1/100; detected with sheep anti-C1q-HRP

mouse NGF [3] = molecular target: T2, mouse NGF (mouse, UniProt P01139 122-241); assay: ELISA, CHO supernatant on murine NGF
T2 construct: also called murine NGF

complement C1q [4] = molecular target: T1, complement C1q; assay: C1q ELISA, antibody captured on mouse NGF, human serum 1/100
mouse NGF [5] = molecular target: T2, mouse NGF; assay: binding ELISA to mouse NGF, CHO supernatants
complement C1q [6] = molecular target: T1, complement C1q; assay: C1q ELISA, antibody captured on NGF
complement C1q [7] = molecular target: T1, complement C1q; assay: C1q ELISA, antibody captured on NGF coated plates

T1 sequence (P02745 23-245 limits assumed, chain 1 of 3): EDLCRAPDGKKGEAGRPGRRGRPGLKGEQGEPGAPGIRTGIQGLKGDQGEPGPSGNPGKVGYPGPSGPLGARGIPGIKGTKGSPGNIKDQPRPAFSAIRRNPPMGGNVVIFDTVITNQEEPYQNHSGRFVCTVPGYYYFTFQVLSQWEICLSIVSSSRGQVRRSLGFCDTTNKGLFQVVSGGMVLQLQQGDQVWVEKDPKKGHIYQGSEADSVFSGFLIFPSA
T1 sequence (P02746 28-253 limits assumed, chain 2 of 3): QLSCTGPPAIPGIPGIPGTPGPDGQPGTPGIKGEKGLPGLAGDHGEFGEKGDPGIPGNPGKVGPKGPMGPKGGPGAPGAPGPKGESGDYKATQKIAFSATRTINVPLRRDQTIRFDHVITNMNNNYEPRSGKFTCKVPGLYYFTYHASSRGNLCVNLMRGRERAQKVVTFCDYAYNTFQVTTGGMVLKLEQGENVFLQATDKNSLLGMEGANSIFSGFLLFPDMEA
T1 sequence (P02747 29-245 limits assumed, chain 3 of 3): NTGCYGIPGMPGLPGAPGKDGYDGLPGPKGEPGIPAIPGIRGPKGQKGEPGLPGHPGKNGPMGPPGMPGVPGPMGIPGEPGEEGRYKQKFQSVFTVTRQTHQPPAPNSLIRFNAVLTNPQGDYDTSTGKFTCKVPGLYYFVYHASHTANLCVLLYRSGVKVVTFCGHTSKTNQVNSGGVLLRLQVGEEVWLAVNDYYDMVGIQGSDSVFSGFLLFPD
T2 sequence (P01139 122-241 limits assumed): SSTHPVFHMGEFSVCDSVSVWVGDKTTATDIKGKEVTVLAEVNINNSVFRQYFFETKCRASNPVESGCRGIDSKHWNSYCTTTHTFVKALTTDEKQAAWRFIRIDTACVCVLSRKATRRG
Chain of NGF (TF-1 cell proliferation assay) (P01138 122-241): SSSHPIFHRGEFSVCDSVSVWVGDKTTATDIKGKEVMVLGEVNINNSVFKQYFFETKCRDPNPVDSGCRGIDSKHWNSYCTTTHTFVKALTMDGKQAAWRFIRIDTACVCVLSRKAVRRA

Binder	binding result (complement C1q [2])	binding result (mouse NGF [3])	binding result (complement C1q [4])	binding result (mouse NGF [5])	also measured
B1	no binding (tested: human serum diluted 1/100)	binds			IC50, TF-1 NGF neutralisation assay [1]: 0.013 nM
B2	no binding (tested: human serum diluted 1/100)	binds			
B3			binds	binds	
B4			binds	binds	
B5				binds	binding result (complement C1q [6]): binds
B6				binds	binding result (complement C1q [7]): no binding (tested: human serum diluted 1/100)
